Source: patent publication US5618693, “Interleukin-2 signal transducers and binding assays” (Tularik, Inc.)

Target: hStat 5 (affinity purified, 98/94/88 kD from YT cells; 96/95 kD from PBLs) (Homo sapiens, UniProt P42229 SEQ:1-794)
Assay: pulldown; biotinylated DNA on streptavidin agarose, buffer C, 4 C; retained through wash with mutant oligo 0.2 mg/ml, eluted 0.35 M NaCl
Settings: tags: native, tyrosine phosphorylated; chain copies: 2
Protocol: After dialysis, insoluble proteins were removed by centrifugation and the remaining material was chromatographed over a 100 ml S-Sepharose (Pharmacia) column. Protein flow-through was mixed with a DNA-affinity resin prepared by coupling synthetic, biotinylated DNA corresponding to the IL-4 response element of the gene encoding FcgRI (5'-[…]-3) (SEQ ID NO:3) to streptavidin agarose (Sigma). After binding (2 hours at 4° C.), the affinity matrix was placed on a disposable column and washed sequentially with 10 ml of buffer C, 4 ml of buffer C supplemented with a mutated variant of the IL-4 response element (5'-GTATCACCAGTCAAGGAAC-3') (SEQ ID NO:4) at 0.2 mg/ml, and 10 ml of buffer C. Protein was eluted by exposure to buffer C supplemented with 0.35M NaCl, dialyzed against buffer C, and placed on a 0.5 ml Q-Sepharose (Pharmacia) column. The column was washed with 5 ml of buffer C and protein was eluted with 1 ml of buffer C supplemented with 0.35M NaCl.

Chain of hStat 5 (affinity purified, 98/94/88 kD from YT cells; 96/95 kD from PBLs) (P42229 whole entry): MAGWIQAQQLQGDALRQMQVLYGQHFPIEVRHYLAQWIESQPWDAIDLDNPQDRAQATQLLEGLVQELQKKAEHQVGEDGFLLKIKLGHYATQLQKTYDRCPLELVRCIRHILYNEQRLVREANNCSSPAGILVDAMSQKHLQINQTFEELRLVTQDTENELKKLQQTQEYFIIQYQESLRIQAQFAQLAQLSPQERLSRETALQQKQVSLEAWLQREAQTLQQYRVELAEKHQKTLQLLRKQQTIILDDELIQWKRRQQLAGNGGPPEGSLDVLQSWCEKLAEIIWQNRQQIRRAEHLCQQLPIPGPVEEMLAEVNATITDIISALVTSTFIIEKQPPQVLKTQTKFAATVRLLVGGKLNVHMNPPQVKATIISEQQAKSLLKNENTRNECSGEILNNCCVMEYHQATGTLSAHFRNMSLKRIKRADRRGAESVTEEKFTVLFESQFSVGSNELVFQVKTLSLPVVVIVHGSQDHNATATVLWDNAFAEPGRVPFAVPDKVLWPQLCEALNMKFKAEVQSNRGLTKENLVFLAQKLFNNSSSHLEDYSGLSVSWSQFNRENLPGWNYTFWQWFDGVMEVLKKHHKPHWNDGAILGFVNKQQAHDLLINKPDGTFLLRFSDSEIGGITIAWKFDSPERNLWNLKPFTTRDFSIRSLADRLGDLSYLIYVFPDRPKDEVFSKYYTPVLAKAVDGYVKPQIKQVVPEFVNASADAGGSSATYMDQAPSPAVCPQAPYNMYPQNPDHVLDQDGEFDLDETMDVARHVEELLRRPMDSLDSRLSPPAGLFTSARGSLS

B1: FcgRI IL-4 response element probe (dsDNA)
DNA 1: GTATTTCCCAGAAAAGGAAC
DNA 2: GTTCCTTTTCTGGGAAATAC
  binding result: binds
